This is an account of results in patent publication US20200087400A1 (EUREKA THERAPEUTICS, published 2020).

In assay [1] the target is T1, PSA 146-154 peptide/HLA-A*02:01 complex on the cell surface (human).
T1 construct: also called PSA146/HLA-A*02:01; PSA146-loaded T2 cells
As to the kind of experiment: FACS; scFv phage on PSA146-loaded live T2 cells. The method, then:
(§1) Individual phage clones from enriched phage display panning pools against PSA146/HLA-A*02:01 complex were incubated in the coated plates. Binding of the phage clones was detected by HRP-conjugated anti-M13 antibodies and developed using HRP substrate. The absorbance was read at 450 nm. […] Then, unique antibody clones were identified through DNA sequencing of ELISA-positive clones. […] T2 cells loaded with different peptides and β2M were first stained with purified scFv phage clones, followed by staining with a mouse anti-M13 mAb, and finally R-PE conjugated horse anti-mouse IgG from Vector Labs. Each step of the staining was performed for between 30-60 minutes on ice and the cells were washed twice between stainings. All 16 clones recognized PSA146-loaded T2 cells specifically. FIG. 3 provides examples of PSA146/HLA-A*02:01 specific phage clone binding to peptide-loaded T2 cells through FACS.
(A flow cytometer gives signals particle by particle.)

Assay [2] has as its target T2, HLA-A*02:01 on T2 cells with no peptide loaded (human).
T2 construct: TAP-deficient T2 cells, no peptide loaded from outside; also called T2 cells without peptide loading
As to the kind of experiment: FACS; scFv phage on T2 cells without peptide. The method, then: as §1

The target of assay [3] is T3, control peptide A2E-3/HLA-A*02:01 complex on T2 cells (member of the P19 mixture) (human).
T3 construct: Loaded on T2 cells as part of the mixture of 19 control peptides
As to the kind of experiment: FACS; scFv phage on T2 cells loaded with the P19 mixture. The protocol:
as §1

For assay [4], the target named is T4, control peptide A2E-1/HLA-A*02:01 complex on T2 cells (member of the P19 mixture) (human).
T4 construct: Loaded on T2 cells as part of the mixture of 19 control peptides
The assay is described as above. The protocol: as §1

Assay [5] concerns the target T5, control peptide A2E-5/HLA-A*02:01 complex on T2 cells (member of the P19 mixture) (human).
T5 construct: Loaded on T2 cells as part of the mixture of 19 control peptides
The description is as above. The protocol: as §1

The target in assay [6] is T6, control peptide A2E-10/HLA-A*02:01 complex on T2 cells (member of the P19 mixture) (human).
T6 construct: Loaded on T2 cells as part of the mixture of 19 control peptides
The description is as above. The method, then: as §1

In assay [7] the target is T7, control peptide A2E-8/HLA-A*02:01 complex on T2 cells (member of the P19 mixture) (human).
T7 construct: Loaded on T2 cells as part of the mixture of 19 control peptides
Described as above. The method, then: as §1

In assay [8] the target is T8, control peptide A2E-6/HLA-A*02:01 complex on T2 cells (member of the P19 mixture) (human).
T8 construct: Loaded on T2 cells as part of the mixture of 19 control peptides
The assay is described as above. The method, then:
as §1

Assay [9] addresses T9, control peptide A2E-13/HLA-A*02:01 complex on T2 cells (member of the P19 mixture) (human).
T9 construct: Loaded on T2 cells as part of the mixture of 19 control peptides
The assay is described as above. The protocol:
as §1

The target of assay [10] is T10, control peptide A2E-19/HLA-A*02:01 complex on T2 cells (member of the P19 mixture) (human).
T10 construct: Loaded on T2 cells as part of the mixture of 19 control peptides
Described as above. The protocol: as §1

For assay [11], the target named is T11, control peptide A2E-16/HLA-A*02:01 complex on T2 cells (member of the P19 mixture) (human).
T11 construct: Loaded on T2 cells as part of the mixture of 19 control peptides
The description is as above. The method, then: as §1

Assay [12] addresses T12, control peptide A2E-21/HLA-A*02:01 complex on T2 cells (member of the P19 mixture) (human).
T12 construct: Loaded on T2 cells as part of the mixture of 19 control peptides
The description is as above. The protocol:
as §1

The target in assay [13] is T13, control peptide A2E-23/HLA-A*02:01 complex on T2 cells (member of the P19 mixture) (human).
T13 construct: Loaded on T2 cells as part of the mixture of 19 control peptides
The description is as above. The method, then:
as §1

The target in assay [14] is T14, control peptide A2E-14/HLA-A*02:01 complex on T2 cells (member of the P19 mixture) (human).
T14 construct: Loaded on T2 cells as part of the mixture of 19 control peptides
Described as above. The protocol: as §1

Assay [15] addresses T15, control peptide A2E-9/HLA-A*02:01 complex on T2 cells (member of the P19 mixture) (human).
T15 construct: Loaded on T2 cells as part of the mixture of 19 control peptides
Described as above. The method, then: as §1

For assay [16], the target named is T16, control peptide A2E-2/HLA-A*02:01 complex on T2 cells (member of the P19 mixture) (human).
T16 construct: Loaded on T2 cells as part of the mixture of 19 control peptides
The description is as above. The protocol: as §1

For assay [17], the target named is T17, control peptide A2E-15/HLA-A*02:01 complex on T2 cells (member of the P19 mixture) (human).
T17 construct: Loaded on T2 cells as part of the mixture of 19 control peptides
The description is as above. The method, then:
as §1

The target in assay [18] is T18, control peptide A2E-17/HLA-A*02:01 complex on T2 cells (member of the P19 mixture) (human).
T18 construct: Loaded on T2 cells as part of the mixture of 19 control peptides
The description is as above. The method, then:
as §1

Assay [19] deals with T19, control peptide A2E-4/HLA-A*02:01 complex on T2 cells (member of the P19 mixture) (human).
T19 construct: Loaded on T2 cells as part of the mixture of 19 control peptides
The assay is described as above. The method, then:
as §1

The target of assay [20] is T20, control peptide A2E-7/HLA-A*02:01 complex on T2 cells (member of the P19 mixture) (human).
T20 construct: Loaded on T2 cells as part of the mixture of 19 control peptides
Described as above. The protocol:
as §1

For assay [21], the target named is T21, control peptide A2E-11/HLA-A*02:01 complex on T2 cells (member of the P19 mixture) (human).
T21 construct: Loaded on T2 cells as part of the mixture of 19 control peptides
The description is as above. The protocol: as §1

B1: PSA146/HLA-A*02:01-specific scFv phage clone #8 (scFv, V domains shown)
VH: QVQLQQWGAGLLKPSETLSLTCAVKGGSFSDYYWSWIRQPPGKGLEWIGEINHSGGTNYNPSLKSRVTISVDTSKNQFSLKLLSVTAADTAVYYCARYNEYGSGYDKWGQGTLVTVSS
VL: QSVLTQPPSVSAAPGQKVTISCSGSSYNIGNNYVSWYQQLPGTAPKLLIYDNNKRPSGIPDRFSGSKSGTSATLGITGLQTGDEAEYYCGTWESSLSAYVFGTGTKVTVLG
As for B1, the binding result in assay [1] is on record as “binds”; in assay [2], “no binding”; in assay [3], “no binding”; in assay [4] it was “no binding”; in [5], “no binding”; in [6], “no binding”. The binding result in [7], in assay [8], in assay [9], in [10], in assay [11] and in assay [12] was “no binding” in each case. The binding result in [13], in assay [14], in assay [15], in assay [16], in assay [17] and in assay [18] was “no binding” in each case. In addition, the binding result in assay [19], in assay [20] and in assay [21] was “no binding” each time.
